Experimental data reported in publication PMC11879086, “Identification and characterization of a human MORC2 DNA binding region that is required for gene silencing” (Nucleic Acids Research, 2024).

Columns and labels:
[1] = tested on: MBP-MORC2 wild-type (Homo sapiens); assay: pull-down; conditions: FA/EMSA: 50 mM NaCl, 3 mM MgCl2, 20 mM Na-HEPES pH 7.4, 1 mM TCEP, 10% glycerol, 0.025 mM ZnCl2, 50 ug/ml BSA, room temperature; 1 nM nucleic acid (FA) or 20 nM
[2] = target: T1, MORC2 dephosphorylated (wild-type) (Homo sapiens) (UniProt Q9Y6X9); assay: fluorescence anisotropy; conditions: apo; FA/EMSA: 50 mM NaCl, 3 mM MgCl2, 20 mM Na-HEPES pH 7.4, 1 mM TCEP, 10% glycerol, 0.025 mM ZnCl2, 50 ug/ml BSA, room temperature; 1 nM nucleic acid (FA) or 20 nM
T1 sequence: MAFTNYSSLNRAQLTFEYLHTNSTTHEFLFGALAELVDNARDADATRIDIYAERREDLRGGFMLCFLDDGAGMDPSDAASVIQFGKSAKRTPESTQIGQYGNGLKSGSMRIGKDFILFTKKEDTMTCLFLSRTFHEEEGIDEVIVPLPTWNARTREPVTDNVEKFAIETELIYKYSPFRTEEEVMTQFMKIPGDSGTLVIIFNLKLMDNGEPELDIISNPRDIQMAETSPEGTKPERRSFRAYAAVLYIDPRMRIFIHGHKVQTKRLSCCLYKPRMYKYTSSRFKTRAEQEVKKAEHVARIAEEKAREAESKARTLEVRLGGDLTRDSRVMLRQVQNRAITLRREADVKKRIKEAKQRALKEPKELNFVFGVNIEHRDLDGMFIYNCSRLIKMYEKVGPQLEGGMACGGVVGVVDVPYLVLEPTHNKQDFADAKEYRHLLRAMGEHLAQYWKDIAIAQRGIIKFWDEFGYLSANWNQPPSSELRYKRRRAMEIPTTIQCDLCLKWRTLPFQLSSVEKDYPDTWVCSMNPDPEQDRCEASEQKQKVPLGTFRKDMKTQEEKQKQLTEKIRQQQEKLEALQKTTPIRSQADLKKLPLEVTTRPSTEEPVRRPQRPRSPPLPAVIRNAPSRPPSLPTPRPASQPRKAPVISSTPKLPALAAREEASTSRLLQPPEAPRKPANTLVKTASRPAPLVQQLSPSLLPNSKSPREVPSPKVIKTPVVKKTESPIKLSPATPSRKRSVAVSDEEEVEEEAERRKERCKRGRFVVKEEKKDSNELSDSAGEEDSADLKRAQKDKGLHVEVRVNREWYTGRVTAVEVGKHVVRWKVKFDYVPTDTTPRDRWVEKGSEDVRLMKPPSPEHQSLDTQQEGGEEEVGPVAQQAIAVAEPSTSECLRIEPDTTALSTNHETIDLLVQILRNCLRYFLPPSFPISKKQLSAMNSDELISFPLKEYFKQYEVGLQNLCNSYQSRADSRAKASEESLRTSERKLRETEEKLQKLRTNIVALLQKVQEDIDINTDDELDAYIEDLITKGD

[3] = target: T2, MORC2 dephosphorylated (wild-type) (Homo sapiens, UniProt Q9Y6X9 1-1032); assay: fluorescence anisotropy; apo; Hill slope 0.6; FA/EMSA: 50 mM NaCl, 3 mM MgCl2, 20 mM Na-HEPES pH 7.4, 1 mM TCEP, 10% glycerol, 0.025 mM ZnCl2, 50 ug/ml BSA, room temperature; 1 nM nucleic acid (FA) or 20 nM DNA (EMSA); conditions: protein: recombinant; tags: tag removed by TEV; chain copies: 2; label: 5'-6-FAM on oligo 3; four-way junction of 4 strands
T2 sequence: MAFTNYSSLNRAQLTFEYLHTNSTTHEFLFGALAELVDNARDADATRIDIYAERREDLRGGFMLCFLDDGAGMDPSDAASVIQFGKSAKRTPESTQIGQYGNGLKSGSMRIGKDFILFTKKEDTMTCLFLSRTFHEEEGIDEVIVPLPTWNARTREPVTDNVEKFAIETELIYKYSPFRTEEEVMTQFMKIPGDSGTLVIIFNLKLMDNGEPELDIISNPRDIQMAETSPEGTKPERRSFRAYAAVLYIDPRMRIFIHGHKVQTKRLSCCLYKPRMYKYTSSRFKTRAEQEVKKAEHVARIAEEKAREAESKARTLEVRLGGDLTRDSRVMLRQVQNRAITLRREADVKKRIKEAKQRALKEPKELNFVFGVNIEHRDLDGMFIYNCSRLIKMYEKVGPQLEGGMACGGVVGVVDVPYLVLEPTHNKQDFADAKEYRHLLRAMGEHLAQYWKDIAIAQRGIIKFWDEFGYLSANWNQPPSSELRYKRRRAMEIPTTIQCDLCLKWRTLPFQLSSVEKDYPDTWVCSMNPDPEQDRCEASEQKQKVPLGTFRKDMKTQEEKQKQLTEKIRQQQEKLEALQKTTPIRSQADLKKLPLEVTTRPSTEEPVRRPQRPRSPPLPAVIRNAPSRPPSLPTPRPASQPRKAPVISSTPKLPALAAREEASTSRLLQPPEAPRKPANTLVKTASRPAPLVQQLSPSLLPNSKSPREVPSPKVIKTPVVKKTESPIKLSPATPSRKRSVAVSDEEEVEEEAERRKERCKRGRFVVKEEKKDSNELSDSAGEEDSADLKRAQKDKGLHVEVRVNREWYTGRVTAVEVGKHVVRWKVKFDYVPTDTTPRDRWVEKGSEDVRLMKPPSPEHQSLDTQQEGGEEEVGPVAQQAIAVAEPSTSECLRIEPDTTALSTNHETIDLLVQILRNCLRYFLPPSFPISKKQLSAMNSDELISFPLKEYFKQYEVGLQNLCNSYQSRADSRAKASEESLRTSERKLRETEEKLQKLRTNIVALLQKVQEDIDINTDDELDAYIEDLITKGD

[4] = target: T2, MORC2 dephosphorylated (wild-type); assay: fluorescence anisotropy; apo ('5 or less'); FA/EMSA: 50 mM NaCl, 3 mM MgCl2, 20 mM Na-HEPES pH 7.4, 1 mM TCEP, 10% glycerol, 0.025 mM ZnCl2, 50 ug/ml BSA, room temperature; 1 nM nucleic acid (FA) or 20 nM DNA (EMSA); conditions: protein: recombinant; tags: tag removed by TEV; chain copies: 2; label: 5'-6-FAM; blunt
[5] = target: T2, MORC2 dephosphorylated (wild-type); assay: fluorescence anisotropy; apo; FA/EMSA: 50 mM NaCl, 3 mM MgCl2, 20 mM Na-HEPES pH 7.4, 1 mM TCEP, 10% glycerol, 0.025 mM ZnCl2, 50 ug/ml BSA, room temperature; 1 nM nucleic acid (FA) or 20 nM DNA (EMSA); conditions: protein: recombinant, tags: tag removed by TEV, chain copies: 2, label: 5'-6-FAM
[6] = target: the molecule itself; assay: SEC-MALS; coiled coil 3, 1.5 mg/ml, 150 mM NaCl, 3 mM MgCl2, 20 mM Na-HEPES pH 7.4, 0.5 mM TCEP, 1.5% glycerol, 0.025 mM ZnCl2; Wyatt 010 column
[7] = target: the molecule itself; assay: SEC-MALS; full-length MORC2, 2 mg/ml, 150 mM NaCl, 3 mM MgCl2, 20 mM Na-HEPES pH 7.4, 0.5 mM TCEP, 1.5% glycerol, 0.025 mM ZnCl2, without AMP-PNP; Wyatt 030 column

## pUC19 linear
[1]
  binding signal (fold less than circular): 30

## ATATCGATGTATATATCTGACACGTGCCTGGAGACTAGGGAGTAATCCCCTTGGCGGTTAAAACGCGGGGGACAGCGCGTACGTGCGTTTAAGCGGTGCTAGAGCTGTCTACGACCAATTGAGCGGCCTCGGCACCGGGATTCTGATAT (double strand) [Nucleosome on 2-601-2 DNA]
[2]
  Kd: 16 nM

B1: Cruciform DNA (structured_DNA)
DNA 1: CCCTATAACCCCTGCATTGAATTCCAGTCTGATAA
DNA 2: GTAGTCGTGATAGGTGCAGGGGTTATAGGG
DNA 3: AACAGTAGCTCTTATTCGAGCTCGCGCCCTATCACGACTA
DNA 4: TTTATCAGACTGGAATTCAAGCGCGAGCTCGAATAAGAGCTACTGT
[3]
  Kd: 78 ± 12 nM

B2: 149 bp Widom 601 dsDNA (2-601-2) (dsDNA)
DNA 1: ATATCGATGTATATATCTGACACGTGCCTGGAGACTAGGGAGTAATCCCCTTGGCGGTTAAAACGCGGGGGACAGCGCGTACGTGCGTTTAAGCGGTGCTAGAGCTGTCTACGACCAATTGAGCGGCCTCGGCACCGGGATTCTGATAT
DNA 2: ATATCAGAATCCCGGTGCCGAGGCCGCTCAATTGGTCGTAGACAGCTCTAGCACCGCTTAAACGCACGTACGCGCTGTCCCCCGCGTTTTAACCGCCAAGGGGATTACTCCCTAGTCTCCAGGCACGTGTCAGATATATACATCGATAT
[4]
  Kd: < 5 nM

B3: Random 25mer dsDNA (dsDNA)
DNA 1: TCCATCAGAATTCGGATGAACTCGG
DNA 2: CCGAGTTCATCCGAATTCTGATGGA
[5]; blunt
  Kd: 21 ± 2 nM

B4: High AT 35mer dsDNA (dsDNA)
DNA 1: CATCATCAAAGACCAAAAGTAGATAAAACCACAAA
DNA 2: TTTGTGGTTTTATCTACTTTTGGTCTTTGATGATG
[4]
  Kd: < 5 nM

B5: Random 35mer ssDNA (ssDNA)
DNA: ATAGGGTCCATCAGAATTCGGATGAACTCGGTGTG
[5]
  Kd: 51 ± 9 nM

B6: Random 45mer dsDNA (dsDNA)
DNA 1: GCCGCGTATAGGGTCCATCAGAATTCGGATGAACTCGGTGTGAAG
DNA 2: CTTCACACCGAGTTCATCCGAATTCTGATGGACCCTATACGCGGC
[5]; blunt
  Kd: 11 ± 3 nM

B7: Random 35mer ssRNA (ssRNA)
RNA: AUAGGGUCCAUCAGAAUUCGGAUGAACUCGGUGUG
[5]
  Kd: 49 ± 6 nM

B8: MORC2 coiled coil 3 (residues 900-1032) (domain or fragment, human, UniProt Q9Y6X9 900-1032, looked up)
chain: ALSTNHETIDLLVQILRNCLRYFLPPSFPISKKQLSAMNSDELISFPLKEYFKQYEVGLQNLCNSYQSRADSRAKASEESLRTSERKLRETEEKLQKLRTNIVALLQKVQEDIDINTDDELDAYIEDLITKGD
notes: also called CC3; isolated MORC2 C-terminus; source: E. coli BL21 (DE3) RIL, purified (HisTrap, TEV cleavage, S75 SEC); not shown: His6, N-terminal, cleaved
[6]
  stoichiometry N: 2

B9: Random 65mer dsDNA (dsDNA)
DNA 1: ATTCTCCAGGGCGGCCGCGTATAGGGTCCATCAGAATTCGGATGAACTCGGTGTGAAGAAAGATC
DNA 2: GATCTTTCTTCACACCGAGTTCATCCGAATTCTGATGGACCCTATACGCGGCCGCCCTGGAGAAT
[4]
  Kd: < 5 nM

B10: full-length human MORC2 (dephosphorylated, wild-type) (natural protein, UniProt Q9Y6X9 1-1032, looked up)
chain: MAFTNYSSLNRAQLTFEYLHTNSTTHEFLFGALAELVDNARDADATRIDIYAERREDLRGGFMLCFLDDGAGMDPSDAASVIQFGKSAKRTPESTQIGQYGNGLKSGSMRIGKDFILFTKKEDTMTCLFLSRTFHEEEGIDEVIVPLPTWNARTREPVTDNVEKFAIETELIYKYSPFRTEEEVMTQFMKIPGDSGTLVIIFNLKLMDNGEPELDIISNPRDIQMAETSPEGTKPERRSFRAYAAVLYIDPRMRIFIHGHKVQTKRLSCCLYKPRMYKYTSSRFKTRAEQEVKKAEHVARIAEEKAREAESKARTLEVRLGGDLTRDSRVMLRQVQNRAITLRREADVKKRIKEAKQRALKEPKELNFVFGVNIEHRDLDGMFIYNCSRLIKMYEKVGPQLEGGMACGGVVGVVDVPYLVLEPTHNKQDFADAKEYRHLLRAMGEHLAQYWKDIAIAQRGIIKFWDEFGYLSANWNQPPSSELRYKRRRAMEIPTTIQCDLCLKWRTLPFQLSSVEKDYPDTWVCSMNPDPEQDRCEASEQKQKVPLGTFRKDMKTQEEKQKQLTEKIRQQQEKLEALQKTTPIRSQADLKKLPLEVTTRPSTEEPVRRPQRPRSPPLPAVIRNAPSRPPSLPTPRPASQPRKAPVISSTPKLPALAAREEASTSRLLQPPEAPRKPANTLVKTASRPAPLVQQLSPSLLPNSKSPREVPSPKVIKTPVVKKTESPIKLSPATPSRKRSVAVSDEEEVEEEAERRKERCKRGRFVVKEEKKDSNELSDSAGEEDSADLKRAQKDKGLHVEVRVNREWYTGRVTAVEVGKHVVRWKVKFDYVPTDTTPRDRWVEKGSEDVRLMKPPSPEHQSLDTQQEGGEEEVGPVAQQAIAVAEPSTSECLRIEPDTTALSTNHETIDLLVQILRNCLRYFLPPSFPISKKQLSAMNSDELISFPLKEYFKQYEVGLQNLCNSYQSRADSRAKASEESLRTSERKLRETEEKLQKLRTNIVALLQKVQEDIDINTDDELDAYIEDLITKGD
notes: Cloned into vector 438-B (N-terminal His6-TEV) and into 438-C (N-terminal His6-MBP-TEV); Heterogeneous phosphorylation from insect cells was removed by phosphatase treatment; also called wild-type MORC2; full-length MORC2; not shown: His6, N-terminal, cleaved
[7]
  stoichiometry N: 2
